In US8133978 (GlaxoSmithKline, dated 2012):

T1: Human interleukin-18 (recombinant human IL-18) (human, UniProt Q14116 37-193)
T1 construct: also called hIL-18
T1 sequence: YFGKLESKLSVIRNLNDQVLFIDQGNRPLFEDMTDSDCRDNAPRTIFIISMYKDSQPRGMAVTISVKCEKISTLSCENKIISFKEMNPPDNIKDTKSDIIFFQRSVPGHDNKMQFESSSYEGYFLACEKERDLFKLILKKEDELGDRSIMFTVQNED


Tests used:
[1] = biological target: T1, Human interleukin-18 (recombinant human …); assay: ELISA, human IL-18 captured by 16D10, antibody titrated
Procedure: ELISA with all nine humanised variants was carried out at least 6 times using various batches of purified antibody preparation. FIGS. 4A-4C show representative data from one experiment which generated the EC50 value ranking illustrated in Table 7. Human IL-18 was immobilized on Nunc Maxisorp 96-well plates using 2.5 µg/ml of 16D10 (non-neutralising mouse monoclonal antibody) to capture 5 ng/ml of recombinant human IL-18. Anti-IL-18 humanised antibodies were added at various dilutions. Bound humanised antibodies were detected using anti-human IgG Fc specific peroxidase conjugate (Sigma A0170).

Rhesus IL-18 [2] = biological target: T2, Rhesus IL-18 (rhesus (rhesus/cynomolgus)); assay: Rhesus IL18 binding ELISA, antibody titrated, OD 490 nm
T2 construct: also called Rhesus/Cynomolgus IL-18; rhesus/cynomolgus IL-18

[3] = biological target: T1, Human interleukin-18 (recombinant human …); assay: ELISA, antibody on plate, human IL-18 captured, detected by 16D10; 37 C, in serum
Procedure: (§1) ELISA was carried out with the three Humanised H1 variants; H1L1, H1L2 and H1L3 to assess binding to human IL-18 at room temperature and at 37° C. in both human serum and in block solution (PBS 0.05% TWEEN with 1% BSA (w/v)). The Humanised antibody variants were immobilised on Nunc Maxisorp 96-well plates at 2.5 µg/ml. Capture of 5 ng/ml of recombinant human IL-18 was carried out either at room temperature or 37° C. in human serum or block solution. Anti-IL-18 mouse monoclonal antibody 16D10 was added. The bound mouse antibody was detected using anti-mouse kappa peroxidase conjugate (Serotec MCA 1291P). Representative EC50 values generated from the study data are illustrated in Table 9.

Rhesus IL-18 [4] = biological target: T2, Rhesus IL-18; assay: Rhesus IL-18 binding ELISA, antibody titrated, OD 490 nm
Rhesus IL-18 [5] = biological target: T2, Rhesus IL-18; assay: SPR, Biacore 3000, antibody captured on Protein A, 25 C
Procedure: (§2) Biacore™ kinetic analysis of the humanised 2C10 antibodies was carried out on a Biacore™ 3000 instrument using Protein A capture of the antibodies in HBS-EP buffer (Biacore™). Briefly, Protein A was immobilised on a CM5 chip by primary amine coupling, using manufacturers recommended protocol, to densities around 2000-4000 resonance units (RU's). Humanised antibody was then passed over the Protein A surface and captured to levels of around 200-500 RU's, after a period of stabilisation, IL-18 (human or Rhesus) was passed over the captured antibody surface at defined concentrations and binding sensorgrams were obtained. […] All curves were double referenced against a buffer injection instead of IL-18 and the data was fitted to the 1:1 binding model using the global fit parameters in BiaEval 4.1. Off-rate ranking experiments were set up using the same Protein A capture method, however, only a single concentration of IL-18 was used (10 nM). Whilst the data was fitted using the same binding model as the kinetic analysis, since only one concentration of analyte was used on the off-rate is reported, this value is useful for ranking rather than giving an exact kinetic measurement and was used as a way of selecting which antibodies would be further investigated.
(§3) Based upon these observations selected antibodies were investigated in greater detail for binding to human and Rhesus IL-18 at 37° C. The data shown in Table 4b for human IL-18 is the mean (and standard deviation) of six separate determinations.

[6] = biological target: T1, Human interleukin-18 (recombinant human …); assay: SPR, Biacore T100, Protein A capture, 37 C, mean n = 2
Procedure: (§4) The methodology was basically the same as for the method used in Example 4a above; Protein A was immobilised on a CM5 chip at densities of between 2000-6000 RU's by primary amine coupling. Runs were carried out in HBS-EP (Biacore™). The anti-IL-18 antibodies were captured to densities of between 100-500 RUs, human IL-18 was passed over this captured surface at concentrations between 16-0.0625 nM, with 0 nM concentration (i.e., a buffer only injection of captured antibody) used for double referencing. Regeneration after each injection of IL-18 was by mild acidic elution using two injections of 10 mM glycine, pH1.5. […] The binding curves obtained were analysed using the analysis software inherent to the T100 machine using the 1:1 model of binding. Runs were carried out at the temperatures indicated.

[7] = biological target: T1, Human interleukin-18 (recombinant human …); assay: ELISA, antibody on plate, human IL-18 captured, detected by 16D10; room temperature, blocking buffer
Procedure: as §1

[8] = biological target: T1, Human interleukin-18 (recombinant human …); assay: SPR, Biacore T100, Protein A capture, 25 C, mean n = 3
Procedure: as §4
These experiments were carried out as described above. Table 6 details the kinetic parameters obtained. […] H1L2 has a better on-rate (ka) than H1L1.

[9] = biological target: T1, Human interleukin-18 (recombinant human …); assay: ELISA, antibody on plate, human IL-18 captured, detected by 16D10; room temperature, in serum
Procedure: as §1

[10] = biological target: T1, Human interleukin-18 (recombinant human …); assay: SPR, Biacore 3000, antibody captured on Protein A, 25 C
Procedure: as §2, with “investigated. […]” for “investigated.”

[11] = biological target: T1, Human interleukin-18 (recombinant human …); assay: ELISA, antibody on plate, human IL-18 captured, detected by 16D10; 37 C, blocking buffer
Procedure: as §1

[12] = biological target: T1, Human interleukin-18 (recombinant human …); assay: SPR, Biacore 3000, antibody captured on Protein A, 37 C
Procedure: as §2, §3

Rhesus IL-18 [13] = biological target: T2, Rhesus IL-18; assay: as above
Procedure: as §2, §3

[14] = biological target: T1, Human interleukin-18 (recombinant human …); assay: cell-based or functional assay
[15] = biological target: T1, Human interleukin-18 (recombinant human …); assay: SPR, Biacore T100, Protein A capture, 37 C, mean n = 3
Procedure: as §4

| Binder | EC50 [1] | EC50 (read off the curve) (Rhesus IL-18 [2]) | EC50 [3] | EC50 (read off the curve) (Rhesus IL-18 [4]) | Kd (Rhesus IL-18 [5]) | Kd [6] | EC50 [7] | Kd [8] | EC50 [9] | Kd [10] | EC50 [11] | Kd [12] | Kd (Rhesus IL-18 [13]) | % change vs 2C10 (IC50, KG-1 bioassay) [14] | Kd [15] |
| --- | --- | --- | --- | --- | --- | --- | --- | --- | --- | --- | --- | --- | --- | --- | --- |
| 2C10 rat-human chimera (chimaeric antibody 2C10c) (antibody, V domains shown, Rat 2C10 V regions joined to human IgG1 and kappa C regions; also called Chimera 2C10; 2C10 Chimera) VH: EVQLQQSGAELVRPGTSVKLSCKVSGEISTGYYFHFVRRRPGQGLEWIGRIDPEDDSTKYAERFKDRATLTAQTSSNTAYLNLSSLTSEDTATYFCTTWRIYRDSSGRPFYVMDAWGQGTLVTVSS VL: DIQMTQSPASLSASLGETVSIECLASEDIYTYLTWYQQKPGKSPQLLIYGANKLQDGVPSRFSGSGSGTQYSLKISGIQPEDEGDYFCLQGSKFPLTFGSGTKLEIKR | 7 ng/mL | ~20 ng/mL | 10.1 ng/mL | ~10 ng/mL | 0.0547 nM | 0.0229 nM | 3.81 ng/mL | 0.0091 nM | 7.3 ng/mL | 0.0139 nM | 3.79 ng/mL |  |  |  |  |
| H1L3 humanised anti-IL-18 antibody (antibody, human IgG1, kappa, V domains shown, Human IgG1 / kappa) VH: QVQLVQSGAEVKKPGASVKVSCKVSGEISTGYYFHWVRQAPGKGLEWMGRIDPEDDSTKYAERFKDRVTMTEDTSTDTAYMELSSLRSEDTAVYYCTTWRIYRDSSGRPFYVMDAWGQGTLVTVSS VL: DIQMTQSPSSVSASVGDRVTITCLASEDIYTYLTWYQQKPGKAPQLLIYGANKLQDGVPSRFSGSGSGTDYTLTISSLQPEDEGDYYCLQGSKFPLTFGQGTKLEIKR | 11 ng/mL |  | 11.4 ng/mL |  | 0.109 nM |  | 3.79 ng/mL | 0.022 nM | 8.99 ng/mL | 0.0225 nM | 3.33 ng/mL | 0.188 nM | 0.17 nM | 71.6% | 0.0648 nM |
